# Measurements taken from PMC12273641, “A cryo-electron microscopy structure of yeast Pex5 in complex with a cargo uncovers a novel binding interface” (Journal of Cell Science, 2025).
# T1: Pex5 (full-length Saccharomyces cerevisiae Pex5, 1-612, His-Sumo fusion cleaved off) (Saccharomyces cerevisiae, UniProt P35056 1-612)
# T1 construct: Pex5, peroxisomal PTS1 cargo factor, Saccharomyces cerevisiae, full-length (1-612), cloned into pET28-bdSumo; only L276-F612 is resolved in the cryo-EM map; also called yeast Pex5; full-length yeast Pex5; source: for cryo-EM co-expressed with Eci1 and co-purified (Ni beads, elution by bdSumo protease, SEC); not shown: His tag, N-terminal, cleaved; bdSumo, N-terminal, cleaved
# T1 sequence (looked up): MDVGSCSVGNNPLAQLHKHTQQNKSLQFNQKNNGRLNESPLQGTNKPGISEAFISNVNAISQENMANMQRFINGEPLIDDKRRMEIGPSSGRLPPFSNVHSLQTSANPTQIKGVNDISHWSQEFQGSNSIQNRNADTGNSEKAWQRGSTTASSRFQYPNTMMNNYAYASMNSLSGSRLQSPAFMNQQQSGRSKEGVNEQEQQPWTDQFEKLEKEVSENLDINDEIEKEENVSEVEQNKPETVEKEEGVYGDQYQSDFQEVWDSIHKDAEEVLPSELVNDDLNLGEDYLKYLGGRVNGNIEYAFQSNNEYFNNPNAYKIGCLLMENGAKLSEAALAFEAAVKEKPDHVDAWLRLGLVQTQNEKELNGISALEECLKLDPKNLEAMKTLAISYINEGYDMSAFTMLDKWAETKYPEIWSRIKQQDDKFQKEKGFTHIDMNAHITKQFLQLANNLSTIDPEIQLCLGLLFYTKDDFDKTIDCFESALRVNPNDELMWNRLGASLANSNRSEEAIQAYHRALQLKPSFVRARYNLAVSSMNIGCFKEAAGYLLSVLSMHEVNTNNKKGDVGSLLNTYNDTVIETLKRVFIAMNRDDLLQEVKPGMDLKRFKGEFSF
# Key:
# [1] = biological target: T1, Pex5 (full-length Saccharomyces …); assay: cryo-EM structure; single-particle cryo-EM of the co-expressed, co-purified Pex5–Eci1 complex (2 mg/ml, in PBS); 2.7 Å global, 2.9 Å local refinement of Pex5 and the interface; conditions: both partners purified
# [2] = biological target: the molecule itself; assay: as above
binder,measurement,setting,value
"FLAG-Eci1 wild type (Saccharomyces cerevisiae Δ3,Δ2-enoyl-CoA isomerase 1) (natural protein, UniProt Q05871 1-280, looked up, Eci1 (Δ3,Δ2-enoyl-CoA isomerase 1), Saccharomyces cerevisiae, wild type, M1-L280, ends in the PTS1 tripeptide 278HRL280; cloned into the first open reading frame of pACYCDuet-1; A TEV cleavage site follows the N-terminal FLAG tag; no TEV cleavage is described; Hexamer by cryo-EM; also called Eci1 WT; Eci1 (WT); source: E. coli BL21(DE3): co-expressed with Pex5, in lysate (pull-down); purified …) MSQEIRQNEKISYRIEGPFFIIHLMNPDNLNALEGEDYIYLGELLELADRNRDVYFTIIQSSGRFFSSGADFKGIAKAQGDDTNKYPSETSKWVSNFVARNVYVTDAFIKHSKVLICCLNGPAIGLSAALVALCDIVYSINDKVYLLYPFANLGLITEGGTTVSLPLKFGTNTTYECLMFNKPFKYDIMCENGFISKNFNMPSSNAEAFNAKVLEELREKVKGLYLPSCLGMKKLLKSNHIDAFNKANSVEVNESLKYWVDGEPLKRFRQLGSKQRKHRL",stoichiometry N,[1],6 Eci1 per Pex5
same,stoichiometry N,[2],6
